This assay relates to chimeric Caspase-9 polypeptide. In words: Caspase-9 mutant classes and basal activity (Table 5). Conditions: Caspase-9 mutant class; basal (ligand-independent) signaling compared with unmodified chimeric Caspase-9. The assay is classed as cell-based. An excerpt: Even though homo-dimerization of wild-type initiator Caspase-9 is energetically unfavorable, making them mostly monomers in solution [14-16], the low-level inherent basal activity of unprocessed Caspase-9 [15, 17] is enhanced in the presence of the Apaf-1-based “apoptosome”, its natural allosteric regulator [6]. Moreover, supra-physiological expression levels and/or co-localization could lead to proximity-driven dimerization, further enhancing basal activation. The modified cells of the present application may comprise nucleic acids coding for a chimeric Caspase-9 polypeptide having lower basal signaling activity. Polynucleotides comprising Caspase-9 mutants with lower basal signaling may be expressed in the modified cells used for cell therapy herein. In these examples, the modified cells may include a safety switch, comprising a polynucleotide encoding a lower basal signaling chimeric Caspase-9 polypeptide. In the event of an adverse event following administration of the modified cells comprising the chimeric signaling polypeptides or chimeric antigen receptors herein, Caspase-9 activity may be induced by administering the dimerizer to the patient, thus inducing apoptosis and clearance of some, or all of the modified cells. In some examples, the amount of dimerizer administered may be determined as an amount designed to remove the highest amount, at least 80% or 90% of the modified cells. In other examples, the amount of dimerizer administered may be determined as an amount designed to remove only a portion of the modified cells, in order to alleviate negative symptoms or conditions, while leaving a sufficient amount of therapeutic modified cells in the patient, in order to continue therapy. Methods for using chimeric Caspase-9 polypeptides to induce apoptosis are discussed in PCT Application Number PCT/US2011/037381 by Malcolm K. Brenner et al., titled Methods for Inducing Selective Apoptosis, filed May 20, 2011, and in U.S. patent application Ser. No. 13/112,739 by Malcolm K. Brenner et al., titled Methods for Inducing Selective Apoptosis, filed May 20, 2011, issued Jul. 28, 2015 as U.S. Pat. No. 9,089,520. Chimeric caspase polypeptides having modified basal activity are discussed in PCT Application Serial Number PCT/US2014/022004 by David Spencer et al., titled Modified Caspase Polypeptides and Uses Thereof, filed Mar. 7, 2014, published Oct. 9, 2014 as WO2014/164348, and in U.S. patent application Ser. No. 13/792,135 by David Spencer et al., titled Modified Caspase Polypeptides and Uses Thereof, filed Mar. 7, 2014; and in U.S. patent application Ser. No. 14/640,553 by Spencer et al., filed Mar. 6, 2015. Methods for inducing partial apoptosis of the therapeutic modified cells are discussed in PCT Application Number PCT/US14/040964 by Kevin Slawin et al., titled Methods for Inducing Partial Apoptosis Using Caspase Polypeptides, filed Jun. 4, 2014, published Dec. 11, 2014 as WO2014/197638, and in U.S. patent application Ser. No. 14/296,404 by Kevin Slawin et al., titled Methods for Inducing Partial Apoptosis Using Caspase Polypeptides, filed Jun. 4, 2014. These patent applications and publications are all incorporated by reference herein in their entireties.
chimeric Caspase-9 polypeptide, sequence (P62942 2-108 F37V limits assumed): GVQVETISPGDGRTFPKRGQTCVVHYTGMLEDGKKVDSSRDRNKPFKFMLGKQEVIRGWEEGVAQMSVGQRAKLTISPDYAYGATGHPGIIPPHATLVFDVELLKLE

B1: F326K (protein)
chain: GFGDVGALESLRGNADLAYILSMEPCGHCLIINNVNFCRESGLRTRTGSNIDCEKLRRRFSSLHFMVEVKGDLTAKKMVLALLELARQDHGALDCCVVVILSHGCQASHLQFPGAVYGTDGCPVSVEKIVNIFNGTSCPSLGGKPKLFFIQACGGEQKDHGFEVASTSPEDESPGSNPEPDATPFQEGLRTKDQLDAISSLPTPSDIFVSYSTFPGFVSWRDPKSGSWYVETLDDIFEQWAHSEDLQSLLLRVANAVSVKGIYKQMPGCFNFLRKKLFFKTSASRA
Turning to B1, the “Basal Activity” value is “Increased”.

B2: Q328K (protein)
chain: GFGDVGALESLRGNADLAYILSMEPCGHCLIINNVNFCRESGLRTRTGSNIDCEKLRRRFSSLHFMVEVKGDLTAKKMVLALLELARQDHGALDCCVVVILSHGCQASHLQFPGAVYGTDGCPVSVEKIVNIFNGTSCPSLGGKPKLFFIQACGGEQKDHGFEVASTSPEDESPGSNPEPDATPFQEGLRTFDKLDAISSLPTPSDIFVSYSTFPGFVSWRDPKSGSWYVETLDDIFEQWAHSEDLQSLLLRVANAVSVKGIYKQMPGCFNFLRKKLFFKTSASRA
For B2, the “Basal Activity” value is on record as “Increased”.

B3: Q328R (protein)
chain: GFGDVGALESLRGNADLAYILSMEPCGHCLIINNVNFCRESGLRTRTGSNIDCEKLRRRFSSLHFMVEVKGDLTAKKMVLALLELARQDHGALDCCVVVILSHGCQASHLQFPGAVYGTDGCPVSVEKIVNIFNGTSCPSLGGKPKLFFIQACGGEQKDHGFEVASTSPEDESPGSNPEPDATPFQEGLRTFDRLDAISSLPTPSDIFVSYSTFPGFVSWRDPKSGSWYVETLDDIFEQWAHSEDLQSLLLRVANAVSVKGIYKQMPGCFNFLRKKLFFKTSASRA
As for B3, the “Basal Activity” value was “Increased”.

B4: L329G (protein)
chain: GFGDVGALESLRGNADLAYILSMEPCGHCLIINNVNFCRESGLRTRTGSNIDCEKLRRRFSSLHFMVEVKGDLTAKKMVLALLELARQDHGALDCCVVVILSHGCQASHLQFPGAVYGTDGCPVSVEKIVNIFNGTSCPSLGGKPKLFFIQACGGEQKDHGFEVASTSPEDESPGSNPEPDATPFQEGLRTFDQGDAISSLPTPSDIFVSYSTFPGFVSWRDPKSGSWYVETLDDIFEQWAHSEDLQSLLLRVANAVSVKGIYKQMPGCFNFLRKKLFFKTSASRA
For the molecule B4, the “Basal Activity” value is “Increased”.

B5: D327G (protein)
chain: GFGDVGALESLRGNADLAYILSMEPCGHCLIINNVNFCRESGLRTRTGSNIDCEKLRRRFSSLHFMVEVKGDLTAKKMVLALLELARQDHGALDCCVVVILSHGCQASHLQFPGAVYGTDGCPVSVEKIVNIFNGTSCPSLGGKPKLFFIQACGGEQKDHGFEVASTSPEDESPGSNPEPDATPFQEGLRTFGQLDAISSLPTPSDIFVSYSTFPGFVSWRDPKSGSWYVETLDDIFEQWAHSEDLQSLLLRVANAVSVKGIYKQMPGCFNFLRKKLFFKTSASRA
For B5, the “Basal Activity” value is “Increased”.

B6: D327R (protein)
chain: GFGDVGALESLRGNADLAYILSMEPCGHCLIINNVNFCRESGLRTRTGSNIDCEKLRRRFSSLHFMVEVKGDLTAKKMVLALLELARQDHGALDCCVVVILSHGCQASHLQFPGAVYGTDGCPVSVEKIVNIFNGTSCPSLGGKPKLFFIQACGGEQKDHGFEVASTSPEDESPGSNPEPDATPFQEGLRTFRQLDAISSLPTPSDIFVSYSTFPGFVSWRDPKSGSWYVETLDDIFEQWAHSEDLQSLLLRVANAVSVKGIYKQMPGCFNFLRKKLFFKTSASRA
As to B6, the “Basal Activity” value is “Increased”.

B7: D327K (protein)
chain: GFGDVGALESLRGNADLAYILSMEPCGHCLIINNVNFCRESGLRTRTGSNIDCEKLRRRFSSLHFMVEVKGDLTAKKMVLALLELARQDHGALDCCVVVILSHGCQASHLQFPGAVYGTDGCPVSVEKIVNIFNGTSCPSLGGKPKLFFIQACGGEQKDHGFEVASTSPEDESPGSNPEPDATPFQEGLRTFKQLDAISSLPTPSDIFVSYSTFPGFVSWRDPKSGSWYVETLDDIFEQWAHSEDLQSLLLRVANAVSVKGIYKQMPGCFNFLRKKLFFKTSASRA
With B7, the “Basal Activity” value was “Increased”.

The values above are taken from patent publication US20210147507A1, “METHODS TO AUGMENT OR ALTER SIGNAL TRANSDUCTION” (Bellicum Pharmaceuticals, Inc., priority 2017, published 2021).
